Source: patent publication US20160130324A1 (SHIRE HUMAN GENETIC THERAPIES, published 2016)
One block for each binder: values may come before it.

How the values were obtained:
rhC1s [1] = target: T1, rhC1s (human, UniProt P09871 16-688); assay: inhibition of rhC1s cleavage of a colorimetric peptide substrate, average OD; concentrations from mass spec sizes; C is the midpoint of the 4-parameter fit [panel A]
T1 construct: Enzyme of the colorimetric peptide cleavage assay; Human is read from the printed label 'rhC1s'
T1 sequence (looked up): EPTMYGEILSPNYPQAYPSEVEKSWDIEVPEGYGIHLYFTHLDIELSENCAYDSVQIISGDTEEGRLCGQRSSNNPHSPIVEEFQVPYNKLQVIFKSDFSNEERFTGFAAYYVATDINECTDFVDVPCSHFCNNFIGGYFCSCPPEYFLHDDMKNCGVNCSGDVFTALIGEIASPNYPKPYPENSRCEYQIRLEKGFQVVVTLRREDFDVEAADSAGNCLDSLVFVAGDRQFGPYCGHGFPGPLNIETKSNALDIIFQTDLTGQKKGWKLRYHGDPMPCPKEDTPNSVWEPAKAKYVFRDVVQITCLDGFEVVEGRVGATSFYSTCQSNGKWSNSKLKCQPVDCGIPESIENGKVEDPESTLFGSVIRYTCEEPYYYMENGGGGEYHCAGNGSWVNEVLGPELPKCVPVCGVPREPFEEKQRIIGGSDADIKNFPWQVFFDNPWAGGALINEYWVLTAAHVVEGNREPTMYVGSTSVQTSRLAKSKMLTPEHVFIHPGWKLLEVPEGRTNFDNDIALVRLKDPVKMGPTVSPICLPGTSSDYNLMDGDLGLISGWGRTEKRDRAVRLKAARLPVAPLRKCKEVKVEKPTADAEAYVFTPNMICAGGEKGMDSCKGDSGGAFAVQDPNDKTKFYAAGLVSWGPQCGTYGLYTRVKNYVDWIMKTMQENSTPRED

rhC1s [2] = target: T1, rhC1s; assay: inhibition of rhC1s cleavage of a colorimetric peptide substrate, average OD; concentrations from gel estimated sizes; C is the midpoint of the 4-parameter fit [panel B]
rhC1s [3] = target: T1, rhC1s; assay: inhibition of C1s cleavage of a colorimetric peptide substrate, mean OD value; C is the midpoint of the 4-parameter fit
biotin-C1s = target: T2, biotin-C1s; assay: functional ELISA of the C1s/C1-INH complex: diluted C1-INH with biotin-C1s, captured on a streptavidin plate, anti-C1-INH-HRP, OD450; C is the midpoint of the 4-parameter fit
T2 construct: Used in the functional ELISA that measures the C1s/C1-INH complex
T2 sequence (P09871 16-688, species assumed, looked up): T1 sequence (looked up)
Protocol: This method was used to test the effector dead Fc constructs made for PK studies FIG. 8. The ELISA protocol was as follows: [0334] 60 μL diluted C1-INH+12 μL biotin-C1s [0335] 30 min incubation at RT [0336] Transfer 50 μL of complexes to streptavidin coated plate [0337] 10 min incubation at RT, wash 5× [0338] Add 50 μL of anti-C1-INH-HRP [0339] 60 min incubation at RT, wash 5× [0340] Add 100 μL of TMB substrate [0341] 15 minute incubation at RT [0342] […] Read at OD450

IC50 (rhC1s [1]): 1.76 nM | IC50 (rhC1s [2]): 1.76 nM
B1: R&D rhC1inh (other, human, UniProt P05155 23-500, looked up)
single chain: NPNATSSSSQDPESLQDRGEGKVATTVISKMLFVEPILEVSSLPTTNSTTNSATKITANTTDEPTTQPTTEPTTQPTIQPTQPTTQLPTDSPTQPTTGSFCPGPVTLCSDLESHSTEAVLGDALVDFSLKLYHAFSAMKKVETNMAFSPFSIASLLTQVLLGAGENTKTNLESILSYPKDFTCVHQALKGFTTKGVTSVSQIFHSPDLAIRDTFVNASRTLYSSSPRVLSNNSDANLELINTWVAKNTNNKISRLLDSLPSDTRLVLLNAIYLSAKWKTTFDPKKTRMEPFHFKNSVIKVPMMNSKKYPVAHFIDQTLKAKVGQLQLSHNLSLVILVPQNLKHRLEDMEQALSPSVFKAIMEKLEMSKFQPTLLTLPRIKVTTSQDMLSIMEKLEFFDFSYDLNLCGLTEDPDLQVSAMQHQTVLELTETGVEAAAASAISVARTLLVFEVQQPFLFVLWDQQHKFPVFMGRVYDPRA
notes: commercial R&D Systems preparation; also called hSerpin G1 (R&D Systems)

IC50 (rhC1s [3]): 1.14 nM
B2: recombinant C1-INH (other, UniProt P05155 23-500, looked up)
chain: B1 single chain

IC50 (rhC1s [3]): 1.83 nM | IC50 (rhC1s [1]): 2.01 nM | EC50 (biotin-C1s): 4.58 nM | IC50 (rhC1s [2]): 2.01 nM
B3: plasma-derived C1-INH (other)
chain: B1 single chain
notes: Purified from plasma and glycosylated
